From PMC4335029

Biological target: T1, VexR-MBP (Vibrio cholerae O1 El Tor N16961) (UniProt Q9KVI0)
T1 sequence: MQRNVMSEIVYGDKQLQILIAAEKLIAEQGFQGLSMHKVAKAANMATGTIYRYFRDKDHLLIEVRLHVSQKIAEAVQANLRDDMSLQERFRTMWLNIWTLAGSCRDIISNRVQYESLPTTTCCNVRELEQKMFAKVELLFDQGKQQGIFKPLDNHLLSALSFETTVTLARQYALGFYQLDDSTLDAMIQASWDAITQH
Assay: EMSA

| Sequence | binding |
| --- | --- |
| GCGGGAGTCGGCAGCGATAATAATCCGCTCACCGAGGATTACCAACAAAGAAACTGCCTTTACAAAAATTTACTGCACAAGTGTATTGCAAAACAGGGGCGCTGCCGACTCCCGC (double strand) [vexR1] | no binding |
| GCGGGAGTCGGCAGCGGCCGTACACTATTTCAGACATCACATTTCTCTGCAAATGAACGGTTGTTCATTATAGCGGCTAATACCCCCTGTTTTGCACGCTGCCGACTCCCGC (double strand) [vexR2] | binds |
